The values that follow come from the supplement of paper PMC12042874.

± gives the uncertainty stated by the source.

This data set is described as follows: amyloid nucleation score (Sup35N fusion, yeast selection) (log enrichment); library NNK2; higher = more nucleation; inactive = no reads after selection. Put shortly: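 Plasmid inserts were Illumina-sequenced at input and output from psi-negative yeast expressing Sup35N fused to peptides of 20 random codons. The yeast were induced with 100 μM copper sulfate for 24 hours and grown 7 days at 30°C on medium lacking adenine and uracil, and sequences with under 100 input reads were excluded. Nucleation score is the DiMSum log enrichment of output over input reads, centred on the mode score of non-aggregating sequences.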
Regarding FRNSTATLYSVGSFTSKTQL, the amyloid nucleation score is 1.03 ± 0.19. The substance SALRVSEGMLSSGEIAHLVY showed an amyloid nucleation score of -0.052 ± 0.23. The result for IRSLFLVDYNRMIGMPKGMY reads 1.55 ± 0.2; that for ESYLFAWDNGMFYIANDLEF, 0.494 ± 0.8.

For YISMSMLGCLRTLREVHRDR, the amyloid nucleation score stood at 3.21 ± 0.11. The result for GGSLPMFWKIMPGRHCGK reads -0.019 ± 0.32; that for GGVHGGFRSYVVAIWYGMLN, -1.37 ± 1.1; that for CYINKVRCMMHLWDHDDTWG, 0.734 ± 0.81. The result for EADLYSTAIQLDK reads -0.313 ± 0.44; that for KCIYDFHHRKSSVRDSLSFH, -1.6 ± 0.75. The result for HSQRNP reads “inactive”; that for FTIFNKLCCVNYWVCILCYR, 5.144 ± 0.049; that for LTIVWLVVVYGLWGVSTFSL, “inactive”. With HYWNWYVEL, the amyloid nucleation score came out at 4.582 ± 0.037. The result for EGSNYYTMVV reads “inactive”.

Take GFMFGMLTISLRSVMFVARV: the amyloid nucleation score is -0.227 ± 0.32. The result for VPFCGNNCSHCVRMSRLGRS reads 0.719 ± 0.47; that for AQTWMAKTISKDAVGGSPLS, 0.272 ± 0.56; that for IMGKLHTADYIIVLRLIDRS, -0.349 ± 0.41.

The substance SGYSPSLFCKVFPWANELCS showed an amyloid nucleation score of -1.12 ± 1.1. With VGAMLKWLT, the amyloid nucleation score worked out at 0.378 ± 0.23. NCPSPLVWDCVLVVGDPVAC returned an amyloid nucleation score of 0.217 ± 0.25. The result for NTGVIYDAT reads -0.307 ± 0.63; that for FYATYSSLRLGVVTIIPPGL, 4.49 ± 0.087. The result for KDNLDQYFTERRGWWLCEVV reads -0.043 ± 0.5; that for ICSYSVAGCYRKYRASFSGE, “inactive”; that for TYHCN, 0.765 ± 0.43.

On to VLFDGKPMEVFFWCLPEWVF, for which the amyloid nucleation score entry is “inactive”.

Consider LHRTLSRRTEVR, for which the amyloid nucleation score was determined as 3.54 ± 0.086.

Regarding YQTWDSYVRSTCVYITCPWY, the amyloid nucleation score was found to be 7.133 ± 0.059. Turning to SVSVEYWCSLWDRRDKGSSQ, the amyloid nucleation score is 0.619 ± 0.81. The result for RSLVLYSGRKVLS reads -0.516 ± 0.27. The result for KLKRHL reads -0.3 ± 0.24; that for SHVTGR, 0.602 ± 0.34. The result for SFNWNC reads -1.15 ± 0.76; that for SWVRVTSPSIATFSATYCVL, 0.619 ± 0.81; that for VTNSSMQMSSWADPSVKSGM, 0.032 ± 0.32. In turn, IIGDTICVVIIKWNLKNYRS returned an amyloid nucleation score of 3.67 ± 0.075.

KVRDCDIMAPNIMVRSLNRS gave an amyloid nucleation score of 1.73 ± 0.16. The result for KMTRLLFYWSFGCGLIHLVC reads -0.464 ± 1.1; that for MLERHKDRTRSGLKRGARET, 0.84 ± 0.46. For the substance ACCLIAIWRPI, the amyloid nucleation score was 5.47 ± 0.085. LGIIQTVCRHGLQFMCVSRG: the amyloid nucleation score is -0.122 ± 0.49. NDTAATGANDETSDFYTEYC had an amyloid nucleation score of 0.376 ± 0.66. The result for CFIRFSRMGLFLFCLPKNLQ reads -1.59 ± 0.53; that for DWSVKCGVMERI, -0.295 ± 0.4. The result for VNWEHVRIVELFYKGMSQMA reads -0.549 ± 1; that for SSMVQR, -0.917 ± 0.55. The result for CKALCIKIWVERVTC reads 2.31 ± 0.16; that for RLWNSGCLS, -0.916 ± 0.76; that for CTFLRNIGFLYWYVSPLNLG, “inactive”. DLYQALSISV: the amyloid nucleation score was -0.308 ± 0.39. The result for RTHTKLGT reads 0.462 ± 0.42; that for DRGYVTD, 1.14 ± 0.4; that for NNSMYILYSGYTFGCYTRGL, 6.38 ± 0.066.

MDLMGCLYYPDT came in with an amyloid nucleation score of 1.05 ± 0.35.

ILIMGMILNSMYV gave an amyloid nucleation score of 0.516 ± 0.64. The result for VVRYLYRWTTVVGLHGGSHN reads -0.786 ± 0.43.

Consider LLSVCFSRARC, for which the amyloid nucleation score is 1.07 ± 0.23. The result for GATRALRSVTRR reads 3.26 ± 0.13. The result for FACIGGVLHAGGGVGAIGA reads 0.69 ± 0.42; that for VTGTYFLVLITCA, 4.27 ± 0.065. The result for IAMIVIQYTIRHCGSAEAVG reads 2.34 ± 0.19; that for ILWLTADFTLLISNYMCLS, “inactive”; that for GLIMVSSVLCTFAGMGDNWA, 5.84 ± 0.091. On to REAMTCIFDLKYAGLASVWW, for which the amyloid nucleation score is -0.532 ± 1. The result for FWHLYPQCQDWSDLQN reads “inactive”; that for VDLCDFCKLVASMVEDGSRE, “inactive”.

In the case of YSMIDTNQFF, the amyloid nucleation score entry was “inactive”. On to KLSYFAFFRSVDGLR, for which the amyloid nucleation score was determined as 0.508 ± 0.53. The result for CFFTSYTRA reads -0.114 ± 0.55; that for ENQPVELSTTRDTRAGMSDT, “inactive”; that for ICYLKTQGKWFIILPWFVMM, 0.241 ± 0.8. Consider ALFTLRVMLTTYYWQGMAEF, for which the amyloid nucleation score came to 0.296 ± 0.31.

For FIFDR, the amyloid nucleation score is -0.257 ± 0.54.

On to VMTSIVFNRVSWYFLIMFVW, for which the amyloid nucleation score is -0.987 ± 0.55. YTRGTNGLWLYRWVMVRGSN displayed an amyloid nucleation score of -0.649 ± 0.36.

Regarding TIGFLFLVNWPSWNFLEEVF, the amyloid nucleation score entry is “inactive”.

Consider VLYHFEISA, for which the amyloid nucleation score was -0.011 ± 0.54. In turn, VGDCITAWRSWNNCFVGYGP gave an amyloid nucleation score of 3.2 ± 0.053.

In the case of IYTTYKRTFRS, the amyloid nucleation score was -0.553 ± 1.1. For the substance VDGTFYLTYFTTCVQSIFFA, the amyloid nucleation score was determined as 0.558 ± 0.6.

VDFLLYLVSSTFGRARKWVY registered an amyloid nucleation score of -0.425 ± 0.27. The result for FYPWDSVCEFSLGCMSNPQA reads 0.158 ± 0.3; that for STYRSASMVQVGRLVHGNQW, 5.38 ± 0.063. The result for NWIDVLFKCKC reads -0.156 ± 0.62; that for VRLVNAVNRRTKIHDIYLRV, 0.664 ± 0.26; that for YNRRLYRIACVGIVNVNGVG, 5.902 ± 0.042. Take RQFPGFSSYPTLEINFYICV: the amyloid nucleation score is 6.76 ± 0.069. The result for SHSYFSYTFQILLCEAVRGG reads -0.124 ± 0.76. The result for FLSRWSFPHGEFLLIRTLAG reads -0.574 ± 0.3; that for ISLHILCCRSMF, 8.618 ± 0.079. The result for VGFRSSCMVTSLIY reads -1.64 ± 0.44. NDWLSHGR came in with an amyloid nucleation score of 4.31 ± 0.054. Substance RCTGVMPV came in with an amyloid nucleation score of -0.072 ± 1.1. The result for VDLGNYSSYRDFRETRLRPM reads 0.229 ± 0.39; that for ESISTVITLRGLMLITTGYN, 4.12 ± 0.097.

With TWVLSWSIPNCARGFLSWWI, the amyloid nucleation score stood at 0.672 ± 0.18. The result for KNGQYDGTGDNSLLGPDGFI reads 3.44 ± 0.075. The result for ITDVFSDAACNRWQINYTQA reads -0.832 ± 0.33. The substance VWAHL returned an amyloid nucleation score of -0.191 ± 0.35. The result for VAYVQCD reads 0.035 ± 0.39; that for GGVYASKYLCGYIKLSLKAS, -0.154 ± 0.3. The result for VRLNMFFSGEFCQGMQLWVS reads “inactive”; that for QSKYVSDPSPPETR, 1.48 ± 0.32; that for IYLFFSCFFAILTNLVRPFA, 3.83 ± 0.081.

Turning to CNFVTILLGMN, the amyloid nucleation score was found to be 4.85 ± 0.055.

With SMNPWYIHWLI, the amyloid nucleation score was 0.003 ± 0.79. The result for LIFRFLGLVMLFQ reads “inactive”.

Take PFVVNVAGLKMSVRV: the amyloid nucleation score is 3.71 ± 0.07. The result for SLDSNNSVFFVCMYSYRGCS reads 0.359 ± 0.32; that for KTGESMVNPIARMWLR, 1.51 ± 0.17. The result for VRSISASLSAMIYR reads -0.925 ± 0.45; that for RFPLGCKMSVTGPFHMTHHA, 1.29 ± 0.38. The result for VKVGSSTRRGSGVPSGPKLG reads 1.04 ± 0.52; that for QVSFEFNRLMGCMLKMTMMT, -0.308 ± 0.49; that for FKAYHSGKWTYGHITQRGRI, “inactive”. WKMWRVKAVNR returned an amyloid nucleation score of 0.935 ± 0.35.

As for ALIKTLYY, the amyloid nucleation score was -0.305 ± 0.48. The result for WVTWLISCCYNRLEQGCLAF reads 0.097 ± 0.63; that for NCARH, -0.215 ± 0.3; that for NFHLEIIFPRQLRLNRSPWV, 3.96 ± 0.13.

Take IVNMMIAANLACAMWSNCKQ: the amyloid nucleation score came to 9.266 ± 0.044. The result for WSGLNSNRSVDNPSISTGWS reads -0.532 ± 0.56. The result for RTNYWVIAWIYAFGS reads -0.716 ± 1.1; that for DRFTAGLIFCMLCLGRYVCM, “inactive”. In turn, FLDMSSRIMRARRPNCFFWC registered an amyloid nucleation score of -0.022 ± 0.31. The result for SLSFIGQIQSIITNRLNSGV reads 5.876 ± 0.039. The substance AGHWLCLVTNFVVRGGDKLF had an amyloid nucleation score of 2.76 ± 0.13. The result for RARARHDLRGQRKVLRDRRF reads 0.849 ± 0.5; that for KHCIIRFIKLGLGKKLKQPV, -1.02 ± 0.36. In turn, KLQRTGLYCYLY returned an amyloid nucleation score of -0.912 ± 0.42. The substance ACFWSVIVHTMKRTVQPQPK showed an amyloid nucleation score of 3.6 ± 0.09.

With AALNDNTSL, the amyloid nucleation score stood at 5.71 ± 0.079. Consider MIGNQNQGVCW, for which the amyloid nucleation score was found to be 0.141 ± 0.29. The result for TNITGVIRVL reads -0.211 ± 0.31; that for VGGGVHGEFGHHYCPSVLGL, 1.81 ± 0.2. The result for DKYAGCNSDDINWMKDRVSG reads 0.029 ± 0.5; that for RGSSALDE, 0.382 ± 0.35. The result for RVYIFTCYGSSV reads 7.997 ± 0.074; that for LRRVSGRLDSIWSWCVRCNE, -1.02 ± 1.1.
